Like-named read-outs stand apart in the source and are kept apart here.
What was measured:
[1] = system: HEK293-SSTR2+ tumor xenografts; conditions: within seven days, cited from earlier work
MPC cells [2] = test: Uptake of radioligands in intact MPC cells (acid wash); assay type: cell-based, mouse; conditions: 25 nmol/L; for Uptake fraction: non-acid-releasable fraction normalized to specifically bound radioligand
Protocol: Uptake of SSTR2 radioligands was measured and analyzed as previously described, with some modifications. In brief, radioligands were prepared at a molar activity of 25 MBq/nmol. […] Non-specific binding and uptake were measured in presence of 1 µmol/L acetyl-TATE. The uptake fraction of radioligands was measured after acid wash with Dulbecco's phosphate-buffered saline containing 0.9 mmol/L CaCl2, 0.5 mmol/L MgCl2, and 0.05 mol/L glycine, pH 2.8, for 5 min.

MPC cells [3] = assay type: cell-based, mouse; conditions: relative loss normalized to initial SSTR2-specific binding
Protocol: MPC cells (2.25 × 10^5/well) were seeded into collagen coated CELLSTAR 48‑well microplates (Greiner Bio‑One, 67180) and grown for three days. Cell culture medium and washing buffer were pre-warmed at 37 °C, unless specified otherwise. Radioligands were prepared at a molar activity of 40 MBq/nmol. Cells were incubated with the radioligands at a final concentration of 2.5 nmol/L in 0.5 mL of cell culture medium for 1 hour at 37 °C. Non-specific binding was determined in presence of 1 µmol/L acetyl-TATE. Binding to plastic surfaces was determined in cell-free cavities. At the end of radioligand exposure, incubation medium was removed, and cells were washed three times with Dulbecco's phosphate-buffered saline containing 0.9 mmol/L CaCl2 and 0.5 mmol/L MgCl2. Cells were overlayed with 0.5 mL of radioligand-free medium and further incubated at 37 °C for a total duration of 24 hours. At specific sampling points (1, 2, 5, and 24 hours), supernatants were removed from all cavities. […] Activity of cell homogenates was measured using the gamma counter Wizard^2 2480 (PerkinElmer, Waltham, MA, USA). Release kinetics were analyzed by non-linear regression using the 'two phase decay' model implemented in Prism 10 (GraphPad Software) with the 'Top' and 'Bottom' parameters constrained at 100 %, and 0 %, respectively.

[4] = cited from earlier work
[5] = Tissue pharmacokinetics by quantitative SPECT imaging in MPC allograft mice; conditions: mouse, in vivo; for tissue uptake per volume at 1 h / tissue uptake per volume at 5 h / tissue uptake per volume at 72 h / tissue uptake per volume at 168 h / Heart (blood) concentration half-life eff. / Liver concentration half-life eff. / Total body contents half-life eff.: female; for tissue uptake per volume at 1 h / tissue uptake per volume at 5 h / tissue uptake per volume at 72 h / tissue uptake per volume at 168 h: Rj:NMRI-Foxn1^nu/nu nude, iv, 50 MBq, total radioactivity; for Heart (blood) concentration half-life eff. / Liver concentration half-life eff. / Total body contents half-life eff.: nude (Rj:NMRI-Foxn1^nu/nu)
Protocol: All animal experiments were carried out according to the guidelines of the German Regulations for Animal Welfare and have been approved by the local Ethical Committee for Animal Experiments. MPC cells (4 × 10^6) were injected subcutaneously into the shoulder of 10-14‑week‑old female nude mice (Rj:NMRI-Foxn1^nu/nu, Janvier Labs, Le Genest-Saint-Isle, France). Prior to treatment and imaging procedures, anesthesia was induced and maintained with inhalation of 10 % (v/v) desflurane in 30/10 % (v/v) oxygen/air. During anesthesia, animals were continuously warmed at 37 °C. Body weight was monitored three times per week and tumor diameters were measured using a caliper. Tumor volume was calculated assuming a tri‑axial ellipsoid with the diameters a, b, and c using the formula V = π/6 × a × b × c. For urine collection, animals were separated in clear conventional rodent boxes. After spontaneous micturition, voided urine was aspirated with a pipette tip, diluted 1:2 with ultrapure water and stored at -80 °C until further processing. For blood sampling, animals were placed in a restrainer and 50 µL of blood were collected from a lateral tail vein using a syringe needle rinsed with heparin. Blood samples were mixed with 4 µL of a 10 % (w/v) aqueous potassium-EDTA solution and kept at 4 °C until further processing. Animals were sacrificed using CO2 inhalation and cervical dislocation.
Tumor-bearing mice were treated with the SSTR2 radioligands at a single initial activity dose of 50 MBq delivered in 0.2 mL of 0.154 mol/L NaCl(aq) through injection into a tail vein (see Supporting information, Table S 1 for further details). Small-animal single-photon emission computed tomography (SPECT) was performed using the Mediso NanoScan® SPECT/CT (Mediso Medical Imaging Systems, Budapest, Hungary). […] With each SPECT scan, a corresponding CT image was recorded and used for anatomical referencing and attenuation correction. Details on image acquisition and reconstruction parameters are included in the Supporting information.
Regions of interest (ROIs) were generated using tissue-specific signal intensity thresholds. ROI-averaged activity concentrations in tissues [MBq/mL] were determined. Details on SPECT image resolution, image quantification tests, and tissue delineation are included in the Supporting information.
(§1) Unless specified otherwise, all activity values are reported without decay correction. Time courses of normalized activity concentrations [% initial A/mL] (organs, tumors) or normalized activity amounts [% initial A] (total body, urinary bladder) were analyzed by non-linear regression using the 'One-phase decay', 'Plateau followed by one-phase decay', or 'Two-phase decay' models implemented in Prism 10 (GraphPad Software), with extrapolated y‑values approaching a lower limit constrained to 0. The normalized time-cumulated activity per milliliter of tissue [% initial A/mL × d] was calculated from areas under time-activity curves. For dose estimation in tumors and kidneys, these values were further converted into total time-cumulated organ activity per initial activity dose [MBq × h/MBq] using a realistic dosimetry model for 30‑g‑mice implemented in Olinda 2.2.3 (Hermes Medical Solutions AB, Stockholm, Sweden). The physical density of tissues was assumed to be 1 g/cm^3. The radionuclide-specific mean absorbed tissue dose DT [Gy] in tumors and kidneys was calculated using the sphere model in Olinda 2.2.3 (Hermes Medical Solutions AB).
Method: Extraction of tissue -specific activity concentrations from SPECT/CT images Tissue-specific regions of interest (ROIs) were generated in ROVER 3.0.77h (ABX). Sphere masks were positioned to pre -select tissue -specific regions for delineation. ROIs were generated within the masks using tissue -specific threshold -based delineation (% of maximum voxel intensity within the given mask)

[6] = Absorbed dose calculation in tumors and kidneys of MPC allograft mice; conditions: mouse, in vivo
Protocol: as §1

[7] = human
Protocol: Tissue-specific pharmacokinetic profiles of radioligands in mice were transformed into human time scale and organ masses using allometric scaling, and dose calculations were performed as reported elsewhere, with some modifications. In brief, projected cumulated activity in human organs was calculated by curve fitting as described above for investigations in mice. Calculations were performed separately for female and male subjects. Cumulated activity in the urinary bladder was determined assuming a voiding interval of four hours. Projected human doses were calculated for male and female subjects using the ICRP 89 Adult Female (60 kg) and ICRP 89 Adult Male (73 kg) models implemented in Olinda 2.2.3 (Hermes Medical Solutions AB).

[8] = cited from earlier work; remark: listed apart in the source
[9] = mouse, in vivo; cited from earlier work
NCI‑H69 xenografts = conditions: mouse, in vivo; cited from earlier work
GOT‑1 xenografts = conditions: mouse, in vivo; cited from earlier work

For `C[C@@H](O)[C@H](NC(=O)[C@@H]1CSSC[C@H](NC(=O)[C@@H](Cc2ccccc2)NC(=O)CN2CCN(CC(=O)O)CCN(CC(=O)O)CCN(CC(=O)O)CC2)C(=O)N[C@@H](Cc2ccc(O)cc2)C(=O)N[C@H](Cc2c[nH]c3ccccc23)C(=O)N[C@@H](CCCCN)C(=O)N[C@@H]([C@@H](C)O)C(=O)N1)C(=O)O` [[^64Cu]Cu‑DOTA-TATE, metal not drawn], the “release from tumor xenografts” value ([1]; reported, reference not given) is listed as 86% and the Uptake fraction (MPC cells [2]; listed as DOTA ^64Cu) is listed as 61 ± 4.6%.
In the case of `C[C@@H](O)[C@H](NC(=O)[C@@H]1CSSC[C@H](NC(=O)[C@@H](Cc2ccccc2)NC(=O)CCC(C(=O)O)N2CCN(CC(=O)O)CCN(CC(=O)O)CC2)C(=O)N[C@@H](Cc2ccc(O)cc2)C(=O)N[C@H](Cc2c[nH]c3ccccc23)C(=O)N[C@@H](CCCCN)C(=O)N[C@@H]([C@@H](C)O)C(=O)N1)C(=O)O` (stereo partly drawn) [[^64Cu]Cu‑NODAGA-TATE, metal not drawn], the 24 h release (MPC cells [3]) is listed as 73 ± 1.9^ # %, the Fast fraction (MPC cells [3]; 1 hour exposure) is listed as 42 ± 3.3% and the plasma half-life [4] is listed as greater than 1440 min. For the same molecule, the “effective uptake lower compared to [177Lu]Lu-DOTA-TATE” value (MPC cells [2]; MPC cells) was 77% and the Uptake fraction (MPC cells [2]) was 64 ± 4.1%.
Molecule `C[C@@H](O)[C@H](NC(=O)[C@@H]1CSSC[C@H](NC(=O)[C@@H](Cc2ccccc2)NC(=O)CCC(C(=O)O)N2CCN(CC(=O)O)CCN(CC(=O)O)CC2)C(=O)N[C@@H](Cc2ccc(O)cc2)C(=O)N[C@H](Cc2c[nH]c3ccccc23)C(=O)N[C@@H](CCCCN)C(=O)N[C@@H]([C@@H](C)O)C(=O)N1)C(=O)O` (stereo partly drawn) [[^67Cu]Cu‑NODAGA-TATE, metal not drawn] has a tissue uptake per volume at 1 h ([5]; Heart) of 0.35 ± 0.13 %ID/mL, a tissue uptake per volume at 1 h ([5]; Kidneys) of 6.69 ± 0.46 %ID/mL and a tissue uptake per volume at 5 h ([5]; Kidneys) of 3.87 ± 0.26 %ID/mL. It also gave a tissue uptake per volume at 1 h ([5]; Liver) of 0.63 ± 0.01 %ID/mL, a tissue uptake per volume at 5 h ([5]; Liver) of 0.57 ± 0.01 %ID/mL and a tissue uptake per volume at 72 h ([5]; Liver) of 0.15 ± 0.04 %ID/mL. For the same molecule, the tissue uptake per volume at 168 h ([5]; Liver) was 0.03 ± 0.02 %ID/mL, the tissue uptake per volume at 1 h ([5]; Tumor) was 17.7 ± 1.83 %ID/mL and the tissue uptake per volume at 5 h ([5]; Tumor) was 13.5 ± 1.4 %ID/mL. For the same molecule, the tissue uptake per volume at 72 h ([5]; Tumor) was 0.14 ± 0.01 %ID/mL, the “Heart (blood) concentration half-life eff.” value [5] was 7.8 min and the “Liver concentration half-life eff.” value [5] was 1210 ± 241 min. For the same molecule, the “Total body contents half-life eff.” value [5] was 19.2 min, the “DT, Kidneys (mean absorbed dose in kidneys)” value [6] was 2.42 ± 0.20 Gy and the “estimated absorbed dose in kidneys” value [6] was 2.42-2.81 Gy/50 MBq. For the same molecule, the “extrapolated female blood effective half-life” value [7] was 52.8 min.
For `C[C@@H](O)[C@H](NC(=O)[C@@H]1CSSC[C@H](NC(=O)[C@@H](Cc2ccccc2)NC(=O)CN2CCN(CC(=O)O)CCN(CC(=O)O)CCN(CC(=O)O)CC2)C(=O)N[C@@H](Cc2ccc(O)cc2)C(=O)N[C@H](Cc2c[nH]c3ccccc23)C(=O)N[C@@H](CCCCN)C(=O)N[C@@H]([C@@H](C)O)C(=O)N1)C(=O)O` [[^68Ga]Ga‑DOTA-TATE, metal not drawn], the Uptake fraction (MPC cells [2]; listed as DOTA ^68Ga) was 87 ± 1.9%.
In the case of `C[C@@H](O)[C@H](NC(=O)[C@@H]1CSSC[C@H](NC(=O)[C@@H](Cc2ccccc2)NC(=O)CN2CCN(CC(=O)O)CCN(CC(=O)O)CCN(CC(=O)O)CC2)C(=O)N[C@@H](Cc2ccc(O)cc2)C(=O)N[C@H](Cc2c[nH]c3ccccc23)C(=O)N[C@@H](CCCCN)C(=O)N[C@@H]([C@@H](C)O)C(=O)N1)C(=O)O` [[^177Lu]Lu‑DOTA-TATE, metal not drawn], the “release from tumor xenografts” value [1] is listed as 95%, the “total absorbed kidney doses well tolerated without acute nephrotoxicity” value ([8]; clinical experience) is listed as “up to 23 Gy” and the “human effective dose in clinical dosimetry” value ([8]; human, in vivo) is listed as 0.069 mSv/MBq. The “threshold dose for proximal tubular damage, absorbed in renal cortex” value [9] was 24 Gy, the “absorbed tumor dose per administered activity” value (NCI‑H69 xenografts) was 0.33-0.36 Gy/MBq and the “release from tumor xenografts” value (NCI‑H69 xenografts) was 68−85%. For the same molecule, the “total absorbed dose in tumors” value (NCI‑H69 xenografts) was 10.0-10.2 Gy, the tissue uptake per volume at 1 h ([5]; Heart) was 0.21 ± 0.18 %ID/mL and the tissue uptake per volume at 1 h ([5]; Kidneys) was 4.05 ± 0.01 %ID/mL. It also gave a tissue uptake per volume at 5 h ([5]; Kidneys) of 3.23 ± 0.04 %ID/mL, a tissue uptake per volume at 72 h ([5]; Kidneys) of 0.08 ± 0.01 %ID/mL and a tissue uptake per volume at 1 h ([5]; Liver) of 0.24 ± 0.04 %ID/mL. It also gave a tissue uptake per volume at 72 h ([5]; Tumor) of 6.79 ± 0.55 %ID/mL, a tissue uptake per volume at 168 h ([5]; Tumor) of 1.33 ± 0.11 %ID/mL and a tissue uptake per volume at 1 h ([5]; 1 h, decay-corrected, Am 40 MBq/nmol, read-out: Tumor) of 22.7 ± 1.84 %ID/mL. The “Heart (blood) concentration half-life eff.” value [5] was 7.8 min, the “Liver concentration half-life eff.” value [5] was 68.4 ± 1.2 min and the “Total body contents half-life eff.” value [5] was 15 min. For the same molecule, the “release from MPC tumors” value [5] was 94%, the “absorbed tumor dose per administered activity” value (GOT‑1 xenografts) was 0.27 Gy and the “release from tumor xenografts” value (GOT‑1 xenografts) was 47%. The “total absorbed dose in tumors” value (GOT‑1 xenografts) was 8.1 Gy, the “DT, Kidneys (mean absorbed dose in kidneys)” value [6] was 2.81 ± 0.14 Gy and the “absorbed doses in MPC tumors” value [6] was 22.0-41.1 Gy. The “estimated absorbed dose in kidneys” value [6] was 2.42-2.81 Gy/50 MBq, the “highest absorbed dose in MPC tumors per administered activity” value [6] was 0.80-0.82 Gy/MBq and the “extrapolated female blood effective half-life” value [7] was 49.8 min.
